From doi:10.1101/2024.08.06.606614 (bioRxiv, 2024)

B1: GOT1L1 (putative aspartate aminotransferase) (natural protein)
chain: MTSLSVFRDVPTAQKLEGSLLKIYRQDGYPSKLFLAYKVCMTEEGHPWVSLVVHKTRLQIAEDPSLDYEYLPLVGLKSFIQSSLELLFGKHSEAIAEKRVGGVHIVGESGAFQLGAQFLKTWRKNVKIVCIVSCQKEQCGLIFQDMGFIVYEYSIWNASDLCSDPSMFVEVLQHIPVGSILVIGNITDCKFTQNQWTKLMSIIKSKQIFPFFDIPCQGLSTGDLEEDTKILQYFVSLGLEFFCSQSLSKNFGIYDEGVGILVVAALSNQHLLCVLSQLMDYVQALWGNPPATGARIITSILCNPALFGEWKQSLKGVVENMMLIKEKVKEKLRLLGTPGSWDHITRQSGTHGYLGLTYQQVEFLVKKKHIYLPKTSRINFTCINARNIDYITQSIHEAVMLTEG
B2: SPAG16 (natural protein)
chain: MAAPSGVPPLRVLEELGIGLSPTGEVTEAVTSEGAYYLEQVTITETSEDECEYEEIPDDNFSIPEGEEDLEKAIHIIGEQARDIHILEQQTILPARNVMQEAIEDFLCNFLIKMGMTRTLDCFQAEWYELIQKKGSDFKGLGNVPDVYSQVMLLETENKNLKKELKHFKQAAEKAKEDLLRTQKERDFHRMHHKRIVQEKNKLIADLKGLKLHYASYEPTIRVLHEKHHALLKEKMLTSLERDRAVGKISGLQATLKNIDMGHIQVPVIKGSYESASITRESGDRAGHSCEKENSSEGPTQKSLREAREEVGYKSKLKNEKKDSEFPVDMQPDPNVTSCTENVSAAKFDYKLNNIFRLHELPVSCIVMHPCRDYLISCSEDRLWKMVGLPQGNVLLTGSGHTDWLSGCCFHPSGSKLATSSGDSTIKLWDLNKGECTLTLEGHNHAVWSCTWHSCGDFVASASLDMTSKIWDVNSERCRYTLYGHTDSVNSIEFFPFSNILLTASADKTLSVWDARTGKCEQSLYGHMHSVNDATFTPRGHIIASCDARGVTKLWDFRKLIPIVSIDVGPSSGNEVNFDQSGRVLAQASANGIIHLLDLKSGQIHKLVGHESEVHSVVFSHLGENLYSGGSDGTIRLWI
B3: CFAP70 (natural protein)
chain: MDQTSSTTKIVHITVTNGYDLKGFKGDTPVTFVRAEFNQTVLGDSSKVTVSPEGTAKYNFTSNIDLSPDGGGALDDLAHKPLFLTVTEVLPKEKKQKDEKTLILGQAVVDLLPLLEGEESFETTVPLHPVPGSPLETPLPGSKQCSLDVKVFVAEPLLTPAQVSASNLLKVTLEAAYSVPESFIPVGPQQNYMVGLQVPSVGEKDYTMIFKNGNLKLGGEKEPVPRPKKWPIANILAPGASNIPDEFIVGGPYEEEEGELNHPEDREFRNQAECTKKRIVWDLESRCFLHPFAVASFQKRIADCRLWPVEITRVPLVVMPKAKPGKLEKIDDENQLSFHGVAYINMVPLLYPGVKKIRGAFHVYPYLDGTVFEKTKCLFSLFRDTGHHLVQNNKAGGLNSPLSKPLSKNLKEEKPGKDKDTEGRPRLGELQAPSIKSQSSDTPLESEAPLSHNLEGQQYIEAGTYIVLEIQLEKALVPKRMPEELARRVKEMIPPRPPLTRRTGGAQKAVSDYHTQIKSISRAILNEYYRMFGKQGPKLESDIDNETMEERKCQLNYELNCSGKYFAFKEQLKHAVVKIVREKYLKTTAFESQEELQTFISELYVFLVDQMHVALNQAVPDDVPSSTSTIQTSSEQLRLFAFEAEVNEKFEIAAMYYEERLVREPQNLENWLDYGAFCLLTEDNIKAQECFRKALSLNESHVDSLLLCGVLAILLENYEQAEIFFEDATCLEPTNVIAWTLLGLFYEIQNNDIRMEMAFHEAFKQLQARTLQTKLKSTVTIENMEEGVKVEPSFGPWGVVQESTTAIKTEGLSGMRPQSSHQLSPHTNMELHPQPQGPNTALSSLDEFLEESPKAQSESQEPMATGQPLEPSLVQRSSNALLKELTSKKDISKCQDSSAFSPPTQHVIAQPPVTIFMETIRFLMKVNAVQFVHRVLAHELLCPQGGPSCEYYLVLAQTHLLKKDFAKTEEYLQQAAQMDYLNPNVWGVKGHLYFLSGNHAEAKECYERTISFVVDASEMHFIFLRLGHIYLEEKEYENAKRTYMHACKRSPSCLTWLGLGIACYRLEELTEAEDALSEANALNNCNAEVWAYLALVCLKVGRQLEAEQAYKYTIKLKLKDQALLEEIHTVQEMVGFGNPSF
B4: germ cell-less 1 (GMCL1) (natural protein)
chain: MGALSSRVLRPAGRTEQPEPTPGAGGAARRSDAGEDAGHSFCYCPGGRKRKRSSGTFCYCHPDSETDDDEDEGDEQQRLLNTPRRKKLKSTSKYIYQTLFLNGENSDIKICALGEEWSLHKIYLCQSGYFSSMFSGSWKESSMNIIELEIPDQNIDIEALQVAFGSLYRDDVLIKPSRVVAILAAACMLQLDGLIQQCGETMKETISVRTVCGYYTSAGTYGLDSVKKKCLEWLLNNLMTHQSVELFKELSINVMKQLIGSSNLFVMQVEMDVYTALKKWMFLQLVPSWNGSLKQLLTETDVWFSKWKKDFEGTTFLETEQGKPFAPVFRHLRLQYIISDLASARIIEQDSLVPSEWLAAVYKQQWLAMLRAEQDSEVGPQEINKEELEGNSMRCGRKLAKDGEYCWRWTGFNFGFDLLVTYTNRYIIFKRNTLNQPCSGSVSLQPRRSIAFRLRLASFDSSGKLICSRATGYQILTLEKDQEQVVMNLDSRLLIFPLYICCNFLYISPEKRTESNRHPENPGH

Experiments:
[1] = molecular target: HYDIN (mouse (endogenous in mouse sperm)) (UniProt Q80W93); test: cryo-EM structure
cryo-EM structure = molecular target: the molecule itself; test: cryo-EM structure

Row | Molecule | stoichiometry N [1] | stoichiometry N (cryo-EM structure)
1 | HYDIN, Q80W93 1-5154 | 3 | 
2 | B1 |  | 2
3 | B2 |  | 2
4 | B3 |  | 2
5 | B4 |  | 2
